The values below come from paper PMC10323247.

In assay [1] the target is GMPCPP- and Taxol-stabilised TAMRA-labelled microtubules of porcine brain tubulin (porcine) (UniProt P02550). As to the kind of experiment: TIRF microscopy binding assay; 1 nM GFP-augmin on surface-attached TAMRA-microtubules with importin α, importin β (25-400 nM) or importin α/β (25-100 nM each), with or without 3.5 μM RanQ69L; BRB80 binding buffer; 30°C.
In assay [2] the target is recombinant human augmin complex (GFP-augmin), all eight full-length subunits HAUS1-HAUS8 (human) (UniProt Q96CS2). As to the kind of experiment: single-molecule TIRF fluorescence intensity analysis; GFP-augmin particles diffusing on microtubules; particle intensity divided by the intensity of single mGFP-augmin particles (photobleaching experiment). Conditions: remark: other sources report otherwise.

A value given as a limit tells only on which side of the number the result lay.

One may read the stoichiometry N as a count of units in the complex or per binding partner.

Consider “recombinant human augmin complex (GFP-augmin), all eight full-length subunits HAUS1-HAUS8 (from UniProt Q96CS2-1 1-278; Q9NVX0-1 1-235; Q68CZ6-1 1-603; Q9H6D7-1 1-363; O94927-1 1-633; Q7Z4H7-1 1-955; Q99871-1 1-358; Q9BT25-1 1-410)”, for which, in assay [1], the median background-corrected fluorescence intensity on microtubules with 100 nM importin α/β and 3.5 µM RanQ69L stood at 338; the median background-corrected fluorescence intensity on microtubules with 400 nM importin β and 3.5 µM RanQ69L was 273; the median background-corrected fluorescence intensity on microtubules, control without importin was 321.

For the substance “recombinant human augmin complex (GFP-augmin), all eight full-length subunits HAUS1-HAUS8, Q96CS2-1 1-278; Q9NVX0-1 1-235; Q68CZ6-1 1-603; Q9H6D7-1 1-363; O94927-1 1-633; Q7Z4H7-1 1-955; Q99871-1 1-358; Q9BT25-1 1-410”, the stoichiometry N in assay [2] was < 10.
